The values below come from US20250011363A1, “OPTIMIZED SHORTENED PEPTIDE THAT BINDS TO ACETYLCHOLINE RECEPTOR, AND USE THEREOF” (SKINMED CO., LTD., priority 2021, published 2025).

The test concerns the target acetylcholine receptor. The test is described as follows: SPR, AchR immobilized on CM5 chip, peptide at 10 uM. For orientation: SPR reads the build-up and loss of mass on a sensor chip optically.

B1: 6mer-1-865 (peptide)
peptide: KKMTAR
Molecule B1 showed a Binding affinity (RU) of 21 RU.

B2: 6mer-2-395 (peptide)
peptide: KWRYRR
With B2, the Binding affinity (RU) was determined as 148 RU.

B3: 6mer-2-343 (peptide)
peptide: KQISKK
For B3, the Binding affinity (RU) turned out to be 146 RU.

B4: 6mer-2-351 (peptide)
peptide: KLYTKR
B4: the Binding affinity (RU) is 135 RU.

B5: 6mer-2-398 (peptide)
peptide: RQQRRR
In turn, B5 returned a Binding affinity (RU) of 141 RU.

B6: 6mer-2-356 (peptide)
peptide: RLLQRR
With B6, the Binding affinity (RU) is 145 RU.

B7: 6mer-2-349 (peptide)
peptide: RRLSRR
For B7, the Binding affinity (RU) is 137 RU.

B8: 6mer-2-380 (peptide)
peptide: RLVYRK
Molecule B8 came in with a Binding affinity (RU) of 141 RU.

B9: 6mer-1-862 (peptide)
peptide: KKHSEK
B9 had a Binding affinity (RU) of 32 RU.

B10: 6mer-2-341 (peptide)
peptide: KVVTKR
In turn, B10 yielded a Binding affinity (RU) of 144 RU.

B11: 6mer-2-376 (peptide)
peptide: KQQCKR
Regarding B11, the Binding affinity (RU) was 141 RU.

B12: 6mer-2-344 (peptide)
peptide: KGIRRK
In the case of B12, the Binding affinity (RU) came out at 148 RU.

B13: 6mer-2-381 (peptide)
peptide: KVYRRR
The molecule B13 came in with a Binding affinity (RU) of 139 RU.

B14: 6mer-2-338 (peptide)
peptide: RSVQKR
In turn, B14 returned a Binding affinity (RU) of 145 RU.

B15: 6mer-1-861 (peptide)
peptide: KRINIR
Consider B15, for which the Binding affinity (RU) came out at 21 RU.

B16: 6mer-2-374 (peptide)
peptide: KRQLKK
The molecule B16 had a Binding affinity (RU) of 125 RU.

B17: 6mer-2-371 (peptide)
peptide: KRLSRR
In turn, B17 had a Binding affinity (RU) of 148 RU.

B18: 6mer-2-397 (peptide)
peptide: RSIYRK
Turning to B18, the Binding affinity (RU) is 154 RU.

B19: 6mer-2-388 (peptide)
peptide: KRFQKK
Regarding B19, the Binding affinity (RU) came to 139 RU.

B20: 6mer-2-339 (peptide)
peptide: KQVYKK
For B20, the Binding affinity (RU) worked out at 151 RU.

B21: 6mer-2-382 (peptide)
peptide: KSVSRR
As for B21, the Binding affinity (RU) worked out at 148 RU.

B22: 6mer-2-362 (peptide)
peptide: RGRQKR
Turning to B22, the Binding affinity (RU) was 154 RU.

B23: 6mer-2-389 (peptide)
peptide: KSLYKK
In turn, B23 had a Binding affinity (RU) of 153 RU.

B24: 6mer-2-363 (peptide)
peptide: KSIYRK
As for B24, the Binding affinity (RU) was found to be 147 RU.

B25: 6mer-2-355 (peptide)
peptide: RGIRKK
Regarding B25, the Binding affinity (RU) is 124 RU.

B26: 6mer-2-387 (peptide)
peptide: KWLCKK
With B26, the Binding affinity (RU) amounted to 146 RU.

B27: 6mer-2-358 (peptide)
peptide: RQIYKK
For the molecule B27, the Binding affinity (RU) came to 154 RU.

B28: 6mer-2-352 (peptide)
peptide: RWFYRR
B28 had a Binding affinity (RU) of 137 RU.

B29: 6mer-2-350 (peptide)
peptide: RGQTRK
In the case of B29, the Binding affinity (RU) was 148 RU.

B30: 6mer-2-377 (peptide)
peptide: RRYCRR
Molecule B30 returned a Binding affinity (RU) of 142 RU.

B31: 6mer-2-336 (peptide)
peptide: KLITKR
The molecule B31 yielded a Binding affinity (RU) of 135 RU.

B32: 6mer-2-394 (peptide)
peptide: KLVLKR
B32 came in with a Binding affinity (RU) of 141 RU.

B33: 6mer-2-367 (peptide)
peptide: RWRSRR
On to B33, for which the Binding affinity (RU) turned out to be 142 RU.

B34: 6mer-2-354 (peptide)
peptide: RWISKK
On to B34, for which the Binding affinity (RU) worked out at 135 RU.

B35: 6mer-2-393 (peptide)
peptide: RGLQRK
For B35, the Binding affinity (RU) is 145 RU.

B36: 6mer-2-347 (peptide)
peptide: RRYSKK
With B36, the Binding affinity (RU) turned out to be 148 RU.

B37: 6mer-2-335 (peptide)
peptide: KWRSRR
Take B37: the Binding affinity (RU) was 153 RU.

B38: 6mer-2-364 (peptide)
peptide: KVFTKK
In turn, B38 yielded a Binding affinity (RU) of 154 RU.

B39: 6mer-2-345 (peptide)
peptide: KSRQKK
Regarding B39, the Binding affinity (RU) was 148 RU.

B40: 6mer-2-337 (peptide)
peptide: KQFQKK
In turn, B40 registered a Binding affinity (RU) of 142 RU.

B41: 6mer-2-368 (peptide)
peptide: RLRTRR
B41 came in with a Binding affinity (RU) of 142 RU.

B42: 6mer-1-859 (peptide)
peptide: RKCMVK
In turn, B42 yielded a Binding affinity (RU) of 27 RU.

B43: 6mer-2-384 (peptide)
peptide: RSFQKK
For B43, the Binding affinity (RU) worked out at 142 RU.

B44: 6mer-2-361 (peptide)
peptide: RSFQRR
In turn, B44 yielded a Binding affinity (RU) of 153 RU.

B45: 6mer-2-372 (peptide)
peptide: KLVQRR
B45: the Binding affinity (RU) came out at 141 RU.

B46: 6mer-1-864 (peptide)
peptide: RRTWGR
In turn, B46 displayed a Binding affinity (RU) of 32 RU.

B47: 6mer-2-359 (peptide)
peptide: RLFCKK
In the case of B47, the Binding affinity (RU) came out at 136 RU.

B48: 6mer-2-365 (peptide)
peptide: RWRYRR
On to B48, for which the Binding affinity (RU) came to 121 RU.

B49: 6mer-2-369 (peptide)
peptide: KVVRRR
On to B49, for which the Binding affinity (RU) turned out to be 145 RU.

B50: 6mer-1-860 (peptide)
peptide: RKHWWR
In the case of B50, the Binding affinity (RU) worked out at 22 RU.

B51: 6mer-2-373 (peptide)
peptide: KLIYRK
Molecule B51 had a Binding affinity (RU) of 139 RU.

B52: 6mer-2-379 (peptide)
peptide: RGVQKR
With B52, the Binding affinity (RU) turned out to be 127 RU.

B53: 6mer-2-370 (peptide)
peptide: KSLLRR
In turn, B53 showed a Binding affinity (RU) of 142 RU.

B54: 6mer-2-392 (peptide)
peptide: RQILKR
B54: the Binding affinity (RU) worked out at 149 RU.

B55: 6mer-2-353 (peptide)
peptide: RLQTKK
The molecule B55 displayed a Binding affinity (RU) of 137 RU.

B56: 6mer-2-366 (peptide)
peptide: KQYYRR
B56 registered a Binding affinity (RU) of 142 RU.

B57: 6mer-2-383 (peptide)
peptide: KLVRRK
In turn, B57 registered a Binding affinity (RU) of 128 RU.

B58: 6mer-2-340 (peptide)
peptide: RRLTRR
As to B58, the Binding affinity (RU) was found to be 122 RU.

B59: 6mer-2-378 (peptide)
peptide: KRFQRK
B59: the Binding affinity (RU) came out at 131 RU.

B60: 6mer-2-357 (peptide)
peptide: RGQRKK
B60 had a Binding affinity (RU) of 151 RU.

B61: 6mer-2-390 (peptide)
peptide: KWLRRR
With B61, the Binding affinity (RU) worked out at 145 RU.

B62: 6mer-2-346 (peptide)
peptide: KRFSKK
Take B62: the Binding affinity (RU) is 153 RU.

B63: 6mer-2-386 (peptide)
peptide: KWQSKR
On to B63, for which the Binding affinity (RU) amounted to 136 RU.

B64: 6mer-2-375 (peptide)
peptide: RVVQKK
As for B64, the Binding affinity (RU) was found to be 131 RU.

B65: 6mer-2-391 (peptide)
peptide: KQYQKR
As to B65, the Binding affinity (RU) was found to be 141 RU.

B66: 6mer-2-348 (peptide)
peptide: KSQLRR
As to B66, the Binding affinity (RU) was 153 RU.

B67: 6mer-1-863 (peptide)
peptide: RRCTER
Molecule B67 gave a Binding affinity (RU) of 27 RU.

B68: 6mer-2-385 (peptide)
peptide: RGVCKR
As to B68, the Binding affinity (RU) was determined as 154 RU.

B69: 6mer-2-396 (peptide)
peptide: KWLQRR
In turn, B69 gave a Binding affinity (RU) of 122 RU.

B70: 6mer-2-342 (peptide)
peptide: KRYRKK
For B70, the Binding affinity (RU) was determined as 145 RU.

B71: 6mer-2-360 (peptide)
peptide: KGVRRR
Take B71: the Binding affinity (RU) worked out at 141 RU.
